Numbering of substitutions follows the chain as printed. Numbers in names are those of the source. Blank lines part the entries; values can stand above or below the binder they belong to.
Key:
[1] = biological target: T1, cleaved active Rac1 (Rac^Q61L) (UniProt P63000 1-192, Q61L); assay: pull-down; purified proteins: GST-Armus 1-550 incubated with cleaved Rac Q61L with or without increasing amounts of MBP-LC3 (molar ratios shown in the figure); probed for Rac1 or LC3; settings: both partners purified
[2] = biological target: T1, cleaved active Rac1 (Rac^Q61L); assay: pull-down; purified proteins: GST fusion protein (GST-LC3, or GST-Armus 1-550 wild-type or mutants) incubated with cleaved Rac Q61L; probed for Rac1; settings: both partners purified

binding result [1]: binds
B1: GST-Armus 1-550 wild-type (domain or fragment)
chain: MEGAGENAPESSSSAPGSEESARDPQVPPPEEESGDCARSLEAVPKKLCGYLSKFGGKGPIRGWKSRWFFYDERKCQLYYSRTAQDANPLDSIDLSSAVFDCKADAEEGIFEIKTPSRVITLKAATKQAMLYWLQQLQMKRWEFHNSPPAPPATPDAALAGNGPVLHLELGQEEAELEEFLCPVKTPPGLVGVAAALQPFPALQNISLKHLGTEIQNTMHNIRGNKQAQGTGHEPPGEDSPQSGEPQREEQPLASDASTPGREPEDSPKPAPKPSLTISFAQKAKRQNNTFPFFSEGITRNRTAQEKVAALEQQVLMLTKELKSQKELVKILHKALEAAQQEKRASSAYLAAAEDKDRLELVRHKVRQIAELGRRVEALEQERESLAHTASLREQQVQELQQHVQLLMDKNHAKQQVICKLSEKVTQDFTHPPDQSPLRPDAANRDFLSQQGKIEHLKDDMEAYRTQNCFLNSEIHQVTKIWRKVAEKEKALLTKCAYLQARNCQVESKYLAGLRRLQEALGDEASECSELLRQLVQEALQWEAGEASSD
notes: Armus (TBC1D2A, isoform 1; UniProt Q9BYX2-1), residues 1-550; also called GST-Armus_(1–550) wild-type (WT); source: 'purified proteins'

binding result [2]: binds
B2: GST-Armus 1-550 W142A,Y510A (domain or fragment)
chain: B1 chain with W142A, Y510A
notes: Armus (TBC1D2A, isoform 1; UniProt Q9BYX2-1), residues 1-550, double point mutant; also called Armus^W142A,Y510A; source: 'purified proteins'
